Data published in patent US20250339531A1, “DUX4 POLYPEPTIDES AND NUCLEIC ACIDS FOR TREATING INFLAMMATORY AND AUTOIMMUNE CONDITIONS” (Fred Hutchinson Cancer Center, priority 2021, published 2025).

System: proteins that co-immunoprecipitated with DUX4-CTD constructs expressed in MB135 myoblasts
Assay: LC-MS of proteins co-immunoprecipitated with DUX4-CTD (Table 1) and western validation
Assay type: binding, human
Design: key to 4. mL1dL2 + Dox + IFNG / 4. + IFNG mix / 4. longCTD + Dox + IFNG / 3. + IFNg + Dox longCTD / 3. + Dox longCTD / 3. + IFNG longCTD: peptide-spectrum matches (PSMs) per protein
Conditions: kind of count not given; for 4. + IFNG mix: LC-MS value per protein co-immunoprecipitated from MB135 myoblasts, + IFNG mix sample (no Dox); for 4. mL1dL2 + Dox + IFNG: LC-MS value per protein co-immunoprecipitated with DUX4-CTD construct mL1dL2 in MB135 myoblasts
Description: As an unbiased method to identify proteins that interact with the C-terminal region of DUX4, liquid chromatography mass spectroscopy (LC-MS) was used to identify proteins that co-immunoprecipitated with DUX4-CTD constructs expressed in MB135 myoblasts. In the first experiment, MB135iDUX4-CTD cells were used, either untreated, treated with doxycycline alone, or with both doxycycline and IFNG. In the second experiment, MB135iDUX4-CTD and MB135iDUX4mL1dL2 cells were used, both treated with doxycycline and IFNG, compared to these two cell lines untreated and combined as a control. Proteins with a minimum of 2 peptide spectrum matches (PSMs) in at least one sample that were identified in both experiments were assigned to one of ten categories (see Methods) to separate candidate interactors from other categories that might be co-purified because of obligate interactions (e.g., proteasome or ribosome) or might be less likely to be physiologically relevant (e.g., cytoskeletal proteins). Candidate interactors were then ranked based on the total PSMs for that protein across all samples.
Centrifugation at 2500 rcf at 4° C. for 5 min pelleted the nuclei, supernatant was discarded, and nuclei resuspended in 1 mL IP buffer pH 7.4 (25 mM Tris-HCl pH 7.5, 175 mM NaCl, 1 mM EDTA, 0.2% NP-40, 5% glycerol) and incubated for 1 hour at 4° C. with rotation then spun at 21000 rcf for 10 minutes at 4° C. to pellet insoluble debris. Protein concentration was determined using the Pierce BCA Protein Assay Kit (ThermoFisher, 23225). An equivalent amount of protein per sample was pre-cleared with Dynabeads Protein G (Invitrogen) bound to mouse IgG (Abcam #131368) for 1 hour at 4° C. with rotation. FLAG-tagged constructs were then immunoprecipitated with Dynabeads Protein G beads coupled to mouse anti-FLAG M2 mAb (Sigma F3165) for 3 hours at 4° C. with rotation. Beads were washed 3× with 1 mL IP buffer and eluted by adding 2× NuPage LDS Sample Buffer (Thermo Fisher, diluted from 4× with PBS) to the beads and heating for 10 minutes at 70° C.
For LC-MS, anti-FLAG immunoprecipitation was performed with beads cross-linked to the anti-FLAG antibody and the proteins competitively eluted with FLAG peptide. Eluted protein samples were electrophoresed into a NuPage 4-12% Bis-Tris gel, excised, and processed by the Fred Hutchinson Cancer Research Center Proteomics Core. Samples were reduced, alkylated, digested with trypsin, desalted, and run on the Orbitrap Eclipse Tribid Mass Spectrometer (Thermo Fisher). Proteomics data were analyzed using Proteome Discoverer 2.4 against a Uniprot human database that included common contaminants using Sequest HT and Percolator for scoring. […] Proteins that were identified in at least one sample from both independent experiments with at least 2 PSMs in one sample were assigned to one of ten categories: 1, candidates; 2, cytoskeletal associated; 3, cytoskeletal; 4, ribosome/translation associated; 5, proteasome associated; 6, membrane or extracellular; ER, golgi, or vesicle associated; 8, lipid metabolism; 9, chaperones; 10, nuclear import or nuclear membrane associated. The proteins in category 1 were further investigated for interactions with DUX4.

Molecule	4. + IFNG mix	4. mL1dL2 + Dox + IFNG
LMNA (protein) METPSQRRATRSGAQASSTPLSPTRITRLQEKEDLQELNDRLAVYIDRVRSLETENAGLRLRITESEEVVSREVSGIKAAYEAELGDARKTLDSVAKERARLQLELSKVREEFKELKARNTKKEGDLIAAQARLKDLEALLNSKEAALSTALSEKRTLEGELHDLRGQVAKLEAALGEAKKQLQDEMLRRVDAENRLQTMKEELDFQKNIYSEELRETKRRHETRLVEIDNGKQREFESRLADALQELRAQHEDQVEQYKKELEKTYSAKLDNARQSAERNSNLVGAAHEELQQSRIRIDSLSAQLSQLQKQLAAKEAKLRDLEDSLARERDTSRRLLAEKEREMAEMRARMQQQLDEYQELLDIKLALDMEIHAYRKLLEGEEERLRLSPSPTSQRSRGRASSHSSQTQGGGSVTKKRKLESTESRSSFSQHARTSGRVAVEEVDEEGKFVRLRNKSNEDQSMGNWQIKRQNGDDPLLTYRFPPKFTLKAGQVVTIWAAGAGATHSPPTDLVWKAQNTWGCGNSLRTALINSTGEEVAMRKLVRSVTVVEDDEDEDGDDLLHHHHGSHCSSSGDPAEYNLRSRTVLCGTCGQPADKASASGSGAQVGGPISSGSSASSVTVTRSYRSVGGSGGGSFGDNLVTRSY	4	8
WDR1 (protein) MPYEIKKVFASLPQVERGVSKIIGGDPKGNNFLYTNGKCVILRNIDNPALADIYTEHAHQVVVAKYAPSGFYIASGDVSGKLRIWDTTQKEHLLKYEYQPFAGKIKDIAWTEDSKRIAVVGEGREKFGAVFLWDSGSSVGEITGHNKVINSVDIKQSRPYRLATGSDDNCAAFFEGPPFKFKFTIGDHSRFVNCVRFSPDGNRFATASADGQIYIYDGKTGEKVCALGGSKAHDGGIYAISWSPDSTHLLSASGDKTSKIWDVSVNSVVSTFPMGSTVLDQQLGCLWQKDHLLSVSLSGYINYLDRNNPSKPLHVIKGHSKSIQCLTVHKNGGKSYIYSGSHDGHINYWDSETGENDSFAGKGHTNQVSRMTVDESGQLISCSMDDTVRYTSLMLRDYSGQGVVKLDVQPKCVAVGPGGYAVVVCIGQIVLLKDQRKCFSIDNPGYEPEVVAVHPGGDTVAIGGVDGNVRLYSILGTTLKDEGKLLEAKGPVTDVAYSHDGAFLAVCDASKVVTVFSVADGYSENNVFYGHHAKIVCLAWSPDNEHFASGGMDMMVYVWTLSDPETRVKIQDAHRLHHVSSLAWLDEHTLVTTSHDASVKEWTITY	–	2
MYL12A (protein) MDLTTTMSSKRTKTKTKKRPQRATSNVFAMFDQSQIQEFKEAFNMIDQNRDGFIDKEDLHDMLASLGKNPTDEYLDAMMNEAPGPINFTMFLTMFGEKLNGTDPEDVIRNAFACFDEEATGTIQEDYLRELLTTMGDRFTDEEVDELYREAPIDKKGNFNYIEFTRILKHGAKDKDD	9	30
CFL1 (protein) MVSPGHGHLRERKELTPHSTNPAAARIWDATYSDGYVRPASGVAVSDGVIKVFNDMKVRKSSTPEEVKKRKKAVLFCLSEDKKNIILEEGKEILVGDVGQTVDDPYATFVKMLPDKDCRYALYDATYETKESKKEDLVFIFWAPESAPLKSKMIYASSKDAIKKKLTGIKHELQANCYEEVKDRCTLAEKLGGSAVISLEGKPL	1	4
KRT71 (protein) MSRQFTCKSGAAAKGGFSGCSAVLSGGSSSSFRAGSKGLSGGFGSRSLYSLGGVRSLNVASGSGKSGGYGFGRGRASGFAGSMFGSVALGPVCPTVCPPGGIHQVTVNESLLAPLNVELDPEIQKVRAQEREQIKALNNKFASFIDKVRFLEQQNQVLETKWELLQQLDLNNCKNNLEPILEGYISNLRKQLETLSGDRVRLDSELRNVRDVVEDYKKRYEEEINKRTAAENEFVLLKKDVDAAYANKVELQAKVESMDQEIKFFRCLFEAEITQIQSHISDMSVILSMDNNRNLDLDSIIDEVRTQYEEIALKSKAEAEALYQTKFQELQLAAGRHGDDLKNTKNEISELTRLIQRIRSEIENVKKQASNLETAIADAEQRGDNALKDARAKLDELEGALHQAKEELARMLREYQELMSLKLALDMEIATYRKLLESEECRMSGEFPSPVSISIISSTSGGSVYGFRPSMVSGGYVANSSNCISGVCSVRGGEGRSRGSANDYKDTLGKGSSLSAPSKKTSR	–	21
TUBB6 (protein) MREIVHIQAGQCGNQIGTKFWEVISDEHGIDPAGGYVGDSALQLERINVYYNESSSQKYVPRAALVDLEPGTMDSVRSGPFGQLFRPDNFIFGQTGAGNNWAKGHYTEGAELVDAVLDVVRKECEHCDCLQGFQLTHSLGGGTGSGMGTLLISKIREEFPDRIMNTFSVMPSPKVSDTVVEPYNATLSVHQLVENTDETYCIDNEALYDICFRTLKLTTPTYGDLNHLVSATMSGVTTSLRFPGQLNADLRKLAVNMVPFPRLHFFMPGFAPLTSRGSQQYRALTVPELTQQMFDARNMMAACDPRHGRYLTVATVFRGPMSMKEVDEQMLAIQSKNSSYFVEWIPNNVKVAVCDIPPRGLKMASTFIGNSTAIQELFKRISEQFSAMFRRKAFLHWFTGEGMDEMEFTEAESNMNDLVSEYQQYQDATANDGEEAFEDEEEEIDG	–	23
TUBB (protein) MREIVHIQAGQCGNQIGAKFWEVISDEHGIDPTGTYHGDSDLQLDRISVYYNEATGGKYVPRAILVDLEPGTMDSVRSGPFGQIFRPDNFVFGQSGAGNNWAKGHYTEGAELVDSVLDVVRKEAESCDCLQGFQLTHSLGGGTGSGMGTLLISKIREEYPDRIMNTFSVVPSPKVSDTVVEPYNATLSVHQLVENTDETYCIDNEALYDICFRTLKLTTPTYGDLNHLVSATMSGVTTCLRFPGQLNADLRKLAVNMVPFPRLHFFMPGFAPLTSRGSQQYRALTVPELTQQVFDAKNMMAACDPRHGRYLTVAAVFRGRMSMKEVDEQMLNVQNKNSSYFVEWIPNNVKTAVCDIPPRGLKMAVTFIGNSTAIQELFKRISEQFTAMFRRKAFLHWYTGEGMDEMEFTEAESNMNDLVSEYQQYQDATAEEEEDFGEEAEEEA	19	56
